For test [1], the target named is CD70 on cells (CHO-CD70, JVM-3, U266, Raji, THP-1, T cells) (human) (UniProt P32970). As to the kind of experiment: on U266 cells.
Test [2] shares this target. As to the kind of experiment: on JVM-3 cells.
The target is the same in test [3]. As to the kind of experiment: on Raji cells.

CD70 on cells (CHO-CD70, JVM-3, U266, Raji, THP-1, T cells) (human), sequence (P32970 whole entry): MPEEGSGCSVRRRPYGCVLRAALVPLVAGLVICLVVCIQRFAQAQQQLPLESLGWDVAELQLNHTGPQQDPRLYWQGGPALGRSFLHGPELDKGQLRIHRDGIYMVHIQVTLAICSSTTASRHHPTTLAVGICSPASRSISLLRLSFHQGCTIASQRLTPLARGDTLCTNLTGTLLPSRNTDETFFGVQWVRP

As to “1F6 (clone ID in Table 3, alloy mouse hybridoma) (antibody)”, the cell binding in test [1] turned out to be 239000; in test [2], 225000; in test [3], 68900.

Source of the values: patent US20240252641A1.
